According to the supplement of paper PMC11316812:
± gives the standard deviation of the averaged measurements.

Assays:
[1] = test system: MCF7; assay: percentage of EdU-negative (G0-arrested) nuclei per well, 72 h; higher = more G0 arrest; details: reference: sequence is the full UniProt precursor, the tested protein was the secreted form or ectodomain
[2] = test system: hTERT-HMEC; assay: as above; details: reference: sequence is the full UniProt precursor, the tested protein was the secreted form or ectodomain
[3] = protein concentration 0.0225 µM
[4] = protein concentration 0.0205 µM
[5] = protein concentration 0.00925 µM
[6] = protein concentration 0.0925 µM
[7] = protein concentration 0.0135 µM
[8] = protein concentration 0.0155 µM
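Note: secreted proteins added to cultured cells, EdU pulse at the end, nuclei found by Hoechst imaging, EdU status from nuclear versus surrounding ring intensity ratio, PBS as neutral control.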

## MLPWLLVFSALGIQAWGDSSWNKTQAKQVSEGLQYLFENISQLTEKGLPTDVSTTVSRKAWGAEAVGCSIQLTTPVNVLVIHHVPGLECHDQTVCSQRLRELQAHHVHNNSGCDVAYNFLVGDDGRVYEGVGWNIQGVHTQGYNNISLGFAFFGTKKGHSPSPAALSAMENLITYAVQKGHLSSSYVQPLLGKGENCLAPRQKTSLKKACPGVVPRSVWGARETHCPRMTLPAKYGIIIHTAGRTCNISDECRLLVRDIQSFYIDRLKSCDIGYNFLVGQDGAIYEGVGWNVQGSSTPGYDDIALGITFMGTFTGIPPNAAALEAAQDLIQCAMVKGYLTPNYLLVGHSDVARTLSPGQALYNIISTWPHFKH [Q96LB8]
[1]; [3]
  percentage of EdU-negative: 24.7 ± 0.28%
[1]; protein concentration 0.225 µM
  percentage of EdU-negative: 25 ± 1.5%
[2]; [3]
  percentage of EdU-negative: 5.75 ± 0.76%
[2]; protein concentration 0.225 µM
  percentage of EdU-negative: 6.41 ± 1.2%

## MLPWTALGLALSLRLALARSGAERGPPASAPRGDLMFLLDSSASVSHYEFSRVREFVGQLVAPLPLGTGALRASLVHVGSRPYTEFPFGQHSSGEAAQDAVRASAQRMGDTHTGLALVYAKEQLFAEASGARPGVPKVLVWVTDGGSSDPVGPPMQELKDLGVTVFIVSTGRGNFLELSAAASAPAEKHLHFVDVDDLHIIVQELRGSILDAMRPQQLHATEITSSGFRLAWPPLLTADSGYYVLELVPSAQPGAARRQQLPGNATDWIWAGLDPDTDYDVALVPESNVRLLRPQILRVRTRPGEAGPGASGPESGAGPAPTQLAALPAPEEAGPERIVISHARPRSLRVSWAPALGSAAALGYHVQFGPLRGGEAQRVEVPAGRNCTTLQGLAPGTAYLVTVTAAFRSGRESALSAKACTPDGPRPRPRPVPRAPTPGTASREP [Q6PCB0]
[1]; [4]
  percentage of EdU-negative: 26.5 ± 2.2%
[1]; protein concentration 0.205 µM
  percentage of EdU-negative: 27.6 ± 0.87%
[2]; [4]
  percentage of EdU-negative: 5.62 ± 0.91%
[2]; protein concentration 0.205 µM
  percentage of EdU-negative: 5.75 ± 1.2%

## MLQGPGSLLLLFLASHCCLGSARGLFLFGQPDFSYKRSNCKPIPANLQLCHGIEYQNMRLPNLLGHETMKEVLEQAGAWIPLVMKQCHPDTKKFLCSLFAPVCLDDLDETIQPCHSLCVQVKDRCAPVMSAFGFPWPDMLECDRFPQDNDLCIPLASSDHLLPATEEAPKVCEACKNKNDDDNDIMETLCKNDFALKIKVKEITYINRDTKIILETKSKTIYKLNGVSERDLKKSVLWLKDSLQCTCEEMNDINAPYLVMGQKQGGELVITSVKRWQKGQREFKRISRSIRKLQC [Q96HF1]
[1]; [5]
  percentage of EdU-negative: 21.9 ± 2.5%
[1]; [6]
  percentage of EdU-negative: 26.3 ± 1.9%
[2]; [5]
  percentage of EdU-negative: 5.51 ± 0.23%
[2]; [6]
  percentage of EdU-negative: 5.34 ± 0.013%

## MLQGTCSVLLLWGILGAIQAQQQEVISPDTTERNNNCPEKTDCPIHVYFVLDTSESVTMQSPTDILLFHMKQFVPQFISQLQNEFYLDQVALSWRYGGLHFSDQVEVFSPPGSDRASFIKNLQGISSFRRGTFTDCALANMTEQIRQDRSKGTVHFAVVITDGHVTGSPCGGIKLQAERAREEGIRLFAVAPNQNLKEQGLRDIASTPHELYRNDYATMLPDSTEIDQDTINRIIKVMKHEAYGECYKVSCLEIPGPSGPKGYRGQKGAKGNMGEPGEPGQKGRQGDPGIEGPIGFPGPKGVPGFKGEKGEFGADGRKGAPGLAGKNGTDGQKGKLGRIGPPGCKGDPGNRGPDGYPGEAGSPGERGDQGGKGDPGRPGRRGPPGEIGAKGSKGYQGNSGAPGSPGVKGAKGGPGPRGPKGEPGRRGDPGTKGSPGSDGPKGEKGDPGPEGPRGLAGEVGNKGAKGDRGLPGPRGPQGALGEPGKQGSRGDPGDAGPRGDSGQPGPKGDPGRPGFSYPGPRGAPGEKGEPGPRGPEGGRGDFGLKGEPGRKGEKGEPADPGPPGEPGPRGPRGVPGPEGEPGPPGDPGLTECDVMTYVRETCGCCDCEKRCGALDVVFVIDSSESIGYTNFTLEKNFVINVVNRLGAIAKDPKSETGTRVGVVQYSHEGTFEAIQLDDERIDSLSSFKEAVKNLEWIAGGTWTPSALKFAYDRLIKESRRQKTRVFAVVITDGRHDPRDDDLNLRALCDRDVTVTAIGIGDMFHEKHESENLYSIACDKPQQVRNMTLFSDLVAEKFIDDMEDVLCPDPQIVCPDLPCQTELSVAQCTQRPVDIVFLLDGSERLGEQNFHKARRFVEQVARRLTLARRDDDPLNARVALLQFGGPGEQQVAFPLSHNLTAIHEALETTQYLNSFSHVGAGVVHAINAIVRSPRGGARRHAELSFVFLTDGVTGNDSLHESAHSMRKQNVVPTVLALGSDVDMDVLTTLSLGDRAAVFHEKDYDSLAQPGFFDRFIRWIC
[1]; protein concentration 0.013 µM
  percentage of EdU-negative: 27.1 ± 0.99%
[1]; protein concentration 0.13 µM
  percentage of EdU-negative: 27.7 ± 1.8%
[2]; protein concentration 0.013 µM
  percentage of EdU-negative: 6.76 ± 1.4%
[2]; protein concentration 0.13 µM
  percentage of EdU-negative: 50.9 ± 9.9%

## MLQLWKLVLLCGVLTGTSESLLDNLGNDLSNVVDKLEPVLHEGLETVDNTLKGILEKLKVDLGVLQKSSAWQLAKQKAQEAEKLLNNVISKLLPTNTDIFGLKISNSLILDVKAEPIDDGKGLNLSFPVTANVTVAGPIIGQIINLKASLDLLTAVTIETDPQTHQPVAVLGECASDPTSISLSLLDKHSQIINKFVNSVINTLKSTVSSLLQKEICPLIRIFIHSLDVNVIQQVVDNPQHKTQLQTLI [Q96DR5]
[1]; [3]
  percentage of EdU-negative: 27.4 ± 1.7%
[1]; protein concentration 0.225 µM
  percentage of EdU-negative: 27.4 ± 1.2%
[2]; [3]
  percentage of EdU-negative: 4.84 ± 0.42%
[2]; protein concentration 0.225 µM
  percentage of EdU-negative: 4.68 ± 0.1%

## MLRAALPALLLPLLGLAAAAVADCPSSTWIQFQDSCYIFLQEAIKVESIEDVRNQCTDHGADMISIHNEEENAFILDTLKKQWKGPDDILLGMFYDTDDASFKWFDNSNMTFDKWTDQDDDEDLVDTCAFLHIKTGEWKKGNCEVSSVEGTLCKTAIPYKRKYLSDNHILISALVIASTVILTVLGAIIWFLYKKHSDSRFTTVFSTAPQSPYNEDCVLVVGEENEYPVQFD [Q8IX05]
[1]; [3]
  percentage of EdU-negative: 25.83 ± 0.12%
[1]; protein concentration 0.225 µM
  percentage of EdU-negative: 25.38 ± 0.14%
[2]; [3]
  percentage of EdU-negative: 4.48 ± 0.56%
[2]; protein concentration 0.225 µM
  percentage of EdU-negative: 5.29 ± 0.55%

## MLRAGWLRGAAALALLLAARVVAAFEPITVGLAIGAASAITGYLSYNDIYCRFAECCREERPLNASALKLDLEEKLFGQHLATEVIFKALTGFRNNKNPKKPLTLSLHGWAGTGKNFVSQIVAENLHPKGLKSNFVHLFVSTLHFPHEQKIKLYQDQLQKWIRGNVSACANSVFIFDEMDKLHPGIIDAIKPFLDYYEQVDGVSYRKAIFIFLSNAGGDLITKTALDFWRAGRKREDIQLKDLEPVLSVGVFNNKHSGLWHSGLIDKNLIDYFIPFLPLEYRHVKMCVRAEMRARGSAIDEDIVTRVAEEMTFFPRDEKIYSDKGCKTVQSRLDFH
[1]; protein concentration 0.005 µM
  percentage of EdU-negative: 27.8 ± 1%
[1]; protein concentration 0.05 µM
  percentage of EdU-negative: 24.9 ± 1.3%
[2]; protein concentration 0.005 µM
  percentage of EdU-negative: 5.1 ± 0.71%
[2]; protein concentration 0.05 µM
  percentage of EdU-negative: 6.38 ± 0.16%

## MLRFYLFISLLCLSRSDAEETCPSFTRLSFHSAVVGTGLNVRLMLYTRKNLTCAQTINSSAFGNLNVTKKTTFIVHGFRPTGSPPVWMDDLVKGLLSVEDMNVVVVDWNRGATTLIYTHASSKTRKVAMVLKEFIDQMLAEGASLDDIYMIGVSLGAHISGFVGEMYDGWLGRITGLDPAGPLFNGKPHQDRLDPSDAQFVDVIHSDTDALGYKEPLGNIDFYPNGGLDQPGCPKTILGGFQYFKCDHQRSVYLYLSSLRESCTITAYPCDSYQDYRNGKCVSCGTSQKESCPLLGYYADNWKDHLRGKDPPMTKAFFDTAEESPFCMYHYFVDIITWNKNVRRGDITIKLRDKAGNTTESKINHEPTTFQKYHQVSLLARFNQDLDKVAAISLMFSTGSLIGPRYKLRILRMKLRSLAHPERPQLCRYDLVLMENVETVFQPILCPELQL [Q8WWY8]
[1]; [7]
  percentage of EdU-negative: 25.5 ± 2.4%
[1]; protein concentration 0.135 µM
  percentage of EdU-negative: 29.4 ± 2.3%
[2]; [7]
  percentage of EdU-negative: 5.39 ± 1.9%
[2]; protein concentration 0.135 µM
  percentage of EdU-negative: 14.6 ± 3%

## MLRGISQLPAVATMSWVLLPVLWLIVQTQAIAIKQTPELTLHEIVCPKKLHILHKREIKNNQTEKHGKEERYEPEVQYQMILNGEEIILSLQKTKHLLGPDYTETLYSPRGEEITTKPENMEHCYYKGNILNEKNSVASISTCDGLRGYFTHHHQRYQIKPLKSTDEKEHAVFTSNQEEQDPANHTCGVKSTDGKQGPIRISRSLKSPEKEDFLRAQKYIDLYLVLDNAFYKNYNENLTLIRSFVFDVMNLLNVIYNTIDVQVALVGMEIWSDGDKIKVVPSASTTFDNFLRWHSSNLGKKIHDHAQLLSGISFNNRRVGLAASNSLCSPSSVAVIEAKKKNNVALVGVMSHELGHVLGMPDVPFNTKCPSGSCVMNQYLSSKFPKDFSTSCRAHFERYLLSQKPKCLLQAPIPTNIMTTPVCGNHLLEVGEDCDCGSPKECTNLCCEALTCKLKPGTDCGGDAPNHTTE
[1]; [3]
  percentage of EdU-negative: 25.9 ± 0.54%
[1]; protein concentration 0.225 µM
  percentage of EdU-negative: 27.7 ± 1.7%
[2]; [3]
  percentage of EdU-negative: 4.82 ± 0.43%
[2]; protein concentration 0.225 µM
  percentage of EdU-negative: 12.07 ± 0.12%

## MLRGTLLCAVLGLLRAQPFPCPPACKCVFRDAAQCSGGDVARISALGLPTNLTHILLFGMGRGVLQSQSFSGMTVLQRLMISDSHISAVAPGTFSDLIKLKTLRLSRNKITHLPGALLDKMVLLEQLFLDHNALRGIDQNMFQKLVNLQELALNQNQLDFLPASLFTNLENLKLLDLSGNNLTHLPKGLLGAQAKLERLLLHSNRLVSLDSGLLNSLGALTELQFHRNHIRSIAPGAFDRLPNLSSLTLSRNHLAFLPSALFLHSHNLTLLTLFENPLAELPGVLFGEMGGLQELWLNRTQLRTLPAAAFRNLSRLRYLGVTLSPRLSALPQGAFQGLGELQVLALHSNGLTALPDGLLRGLGKLRQVSLRRNRLRALPRALFRNLSSLESVQLDHNQLETLPGDVFGALPRLTEVLLGHNSWRCDCGLGPFLGWLRQHLGLVGGEEPPRCAGPGAHAGLPLWALPGGDAECPGPRGPPPRPAADSSSEAPVHPALAPNSSEPWVWAQPVTTGKGQDHSPFWGFYFLLLAVQAMITVIIVFAMIKIGQLFRKLIRERALG
[1]; [8]
  percentage of EdU-negative: 24.8 ± 4.1%
[1]; protein concentration 0.155 µM
  percentage of EdU-negative: 32.8 ± 1.1%
[2]; [8]
  percentage of EdU-negative: 4.92 ± 0.41%
[2]; protein concentration 0.155 µM
  percentage of EdU-negative: 9.145 ± 0.063%
